Source: US20210347852A1 (Regeneron, published 2021)

T1: Human VEGF121 (R&D SYSTEMS Cat #4644-VS) (human, UniProt P15692-9 27-147)
T1 sequence (looked up): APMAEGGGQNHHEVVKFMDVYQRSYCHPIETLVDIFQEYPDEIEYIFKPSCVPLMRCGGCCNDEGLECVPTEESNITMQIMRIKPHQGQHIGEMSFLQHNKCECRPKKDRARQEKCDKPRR


Key:
[1] = target: T1, Human VEGF121 (R&D SYSTEMS Cat #4644-VS); assay: cell-based or functional assay
[2] = target: T1, Human VEGF121 (R&D SYSTEMS Cat #4644-VS); assay: cell-based or functional assay; remark: listed apart in the source
Human VEGF165 (REGN110) [3] = target: T2, Human VEGF165 (REGN110) (human, UniProt P15692-4 27-191); assay: SPR (Biacore 3000), 25C, trap captured by REGN18, hVEGF165 injected
T2 construct: also called hVEGF165; REGN110-L9
Procedure: (§1) Equilibrium dissociation constants (KD values) for human VEGF₁₆₅ binding to various purified VEGF mini-trap constructs were determined using a real-time surface plasmon resonance biosensor using a Biacore 3000 instrument. All binding studies were performed in 10 mM HEPES, 150 mM NaCl, 3 mM EDTA, and 0.05% v/v Surfactant Tween-20; pH 7.4 (HBS-ET) running buffer at 25° C. The Biacore sensor surface was first derivatized by amine coupling with a monoclonal mouse anti-VEGFR1 antibody (REGN18) to capture VEGF mini-trap constructs. Binding studies were performed on the following human VEGF reagents: human VEGF₁₆₅. […] Dissociation of bound VEGF₁₆₅ reagent from VEGF mini-trap constructs was monitored for 60 minutes in HBS-ET running buffer. Kinetic association (ka) and dissociation (kd) rate constants were determined by fitting the real-time sensorgrams to a 1:1 binding model using Scrubber 2.0c curve fitting software. Binding dissociation equilibrium constants (KD) and dissociative half-lives (t1/2) were calculated from the kinetic rate constants as: […]

[4] = target: T1, Human VEGF121 (R&D SYSTEMS Cat #4644-VS); assay: cell-based or functional assay; remark: listed apart in the source
Human VEGF165 (REGN110) [5] = target: T2, Human VEGF165 (REGN110); assay: cell-based or functional assay
[6] = target: T1, Human VEGF121 (R&D SYSTEMS Cat #4644-VS); assay: cell-based or functional assay; remark: listed apart in the source
Human VEGF165 (REGN110) [7] = target: T2, Human VEGF165 (REGN110); assay: SPR, 25C, trap captured by REGN18, hVEGF165 injected
Procedure: as §1

[8] = target: T1, Human VEGF121 (R&D SYSTEMS Cat #4644-VS); assay: cell-based or functional assay; remark: listed apart in the source
[9] = target: T1, Human VEGF121 (R&D SYSTEMS Cat #4644-VS); assay: cell-based or functional assay; remark: listed apart in the source

Binder | IC50, Inhibition of 20 pM VEGF121, VEGFR1 assay (luciferase) [1] | IC50 (read off the curve); NFkB-luciferase reporter (RLU), 293/D9/VEGFR1 cells, VEGF121 constant 40 pM [B] [2] | 2.5 nM hVEGF165 Bound (RU) (Human VEGF165 (REGN110) [3]) | Kd (Human VEGF165 (REGN110) [3]) | koff (Human VEGF165 (REGN110) [3]) | kon (Human VEGF165 (REGN110) [3]) | t½ (Human VEGF165 (REGN110) [3]) | IC50, VEGFR1 40 pM R&D VEGF121 (luciferase) [4] | IC50, VEGFR1 40 pM VEGF165 (REGN110) (luciferase) (Human VEGF165 (REGN110) [5]) | IC50 (read off the curve); NFkB-luciferase reporter (RLU), 293/D9/VEGFR1 cells, VEGF121 constant 40 pM [E] [6] | 2 nM VEGF165 Bound (RU) (Human VEGF165 (REGN110) [7]) | Kd (Human VEGF165 (REGN110) [7]) | koff (Human VEGF165 (REGN110) [7]) | kon (Human VEGF165 (REGN110) [7]) | t½ (Human VEGF165 (REGN110) [7]) | IC50 (read off the curve); NFkB-luciferase reporter (RLU), 293/D9/VEGFR1 cells, VEGF121 constant 40 pM [A] [8] | IC50 (read off the curve); NFkB-luciferase reporter (RLU), 293/D9/VEGFR1 cells, VEGF121 constant 40 pM [D] [9]
REGN10104, VEGF Trap hIgG1 stealth Fc (Fc fusion) SDTGRPFVEMYSEIPEIIHMTEGRELVIPCRVTSPNITVTLKKFPLDTLIPDGKRIIWDSRKGFIISNATYKEIGLLTCEATVNGHLYKTNYLTHRQTNTIIDVVLSPSHGIELSVGEKLVLNCTARTELNVGIDFNWEYPSSKHQHKKLVNRDLKTQSGSEMKKFLSTLTIDGVTRSDQGLYTCAASSGLMTKKNSTFVRVHEKDKTHTCPPCPAPPVAGPSVFLFPPKPKDTLMISRTPEVTCVVVDVSQEDPEVQFNWYVDGVEVHNAKTKPREEQFNSTYRVVSVLTVLHQDWLNGKEYKCKVSNKGLPSSIEKTISKAKGQPREPQVYTLPPSRDELTKNQVSLTCLVKGFYPSDIAVEWESNGQPENNYKTTPPVLDSDGSFFLYSKLTVDKSRWQQGNVFSCSVMHEALHNHYTQKSLSLSPGK | 1.91e-11 M | ~2e-11 M | 7.3 RU | 1.1 pM | 1.01e-05 s⁻¹ | 9.2e+06 M⁻¹ s⁻¹ | 19.1 h | – | – | – | – | – | – | – | – | – | –
mREGN10104, VEGF mini-trap hIgG1 stealth Fc (other, IdeS cleaved from REGN10104; also called Mini-REGN10104) SDTGRPFVEMYSEIPEIIHMTEGRELVIPCRVTSPNITVTLKKFPLDTLIPDGKRIIWDSRKGFIISNATYKEIGLLTCEATVNGHLYKTNYLTHRQTNTIIDVVLSPSHGIELSVGEKLVLNCTARTELNVGIDFNWEYPSSKHQHKKLVNRDLKTQSGSEMKKFLSTLTIDGVTRSDQGLYTCAASSGLMTKKNSTFVRVHEKDKTHTCPPCPAPPVA | 1.34e-11 M | ~1e-11 M | 12.2 RU | 1.78 pM | 1.7e-05 s⁻¹ | 9.5e+06 M⁻¹ s⁻¹ | 11.3 h | – | – | – | – | – | – | – | – | – | –
REGN10105, VEGF mini-trap hIgG2 Fc w/2Cys (other, IdeS cleaved from the IgG2 trap; they are kept as one molecule here; also called REGN10105-L3) SDTGRPFVEMYSEIPEIIHMTEGRELVIPCRVTSPNITVTLKKFPLDTLIPDGKRIIWDSRKGFIISNATYKEIGLLTCEATVNGHLYKTNYLTHRQTNTIIDVVLSPSHGIELSVGEKLVLNCTARTELNVGIDFNWEYPSSKHQHKKLVNRDLKTQSGSEMKKFLSTLTIDGVTRSDQGLYTCAASSGLMTKKNSTFVRVHEKVECPPCPAPPVA | 1.68e-11 M | – | 10.5 RU | 1.89 pM | 1.44e-05 s⁻¹ | 7.62e+06 M⁻¹ s⁻¹ | 13.3 h | 1.74e-11 M | 1.06e-11 M | ~2e-11 M | 20.4 RU | 1.08 pM | ≤ 1e-05 s⁻¹ | 9.3e+06 M⁻¹ s⁻¹ | ≥ 19.2 h | – | –
REGN10117, VEGF Trap hIgG2 Fc w/4 Cys (Fc fusion) SDTGRPFVEMYSEIPEIIHMTEGRELVIPCRVTSPNITVTLKKFPLDTLIPDGKRIIWDSRKGFIISNATYKEIGLLTCEATVNGHLYKTNYLTHRQTNTIIDVVLSPSHGIELSVGEKLVLNCTARTELNVGIDFNWEYPSSKHQHKKLVNRDLKTQSGSEMKKFLSTLTIDGVTRSDQGLYTCAASSGLMTKKNSTFVRVHEKERKCCVECPPCPAPPVAGPSVFLFPPKPKDTLMISRTPEVTCVVVDVSHEDPEVQFNWYVDGVEVHNAKTKPREEQFNSTFRVVSVLTVVHQDWLNGKEYKCKVSNKGLPAPIEKTISKTKGQPREPQVYTLPPSREEMTKNQVSLTCLVKGFYPSDIAVEWESNGQPENNYKTTPPMLDSDGSFFLYSKLTVDKSRWQQGNVFSCSVMHEALHNHYTQKSLSLSPGK | 2.02e-11 M | – | 4.2 RU | ≤ 1.37 pM | ≤ 1e-05 s⁻¹ | 7.3e+06 M⁻¹ s⁻¹ | ≥ 19.2 h | – | – | – | – | – | – | – | – | ~2e-11 M | –
REGN10103, VEGF mini-trap hIgG2 Fc w/4Cys (other) SDTGRPFVEMYSEIPEIIHMTEGRELVIPCRVTSPNITVTLKKFPLDTLIPDGKRIIWDSRKGFIISNATYKEIGLLTCEATVNGHLYKTNYLTHRQTNTIIDVVLSPSHGIELSVGEKLVLNCTARTELNVGIDFNWEYPSSKHQHKKLVNRDLKTQSGSEMKKFLSTLTIDGVTRSDQGLYTCAASSGLMTKKNSTFVRVHEKERKCCVECPPCPAPPVA | 2.11e-11 M | – | 14.8 RU | ≤ 1.08 pM | ≤ 1e-05 s⁻¹ | 9.3e+06 M⁻¹ s⁻¹ | ≥ 19.2 h | – | – | ~2e-11 M | – | – | – | – | – | – | –
mREGN10187, VEGF mini-trap hIgG4 stealth Fc (other, IdeS cleaved from REGN10187; also called Mini-REGN10187) SDTGRPFVEMYSEIPEIIHMTEGRELVIPCRVTSPNITVTLKKFPLDTLIPDGKRIIWDSRKGFIISNATYKEIGLLTCEATVNGHLYKTNYLTHRQTNTIIDVVLSPSHGIELSVGEKLVLNCTARTELNVGIDFNWEYPSSKHQHKKLVNRDLKTQSGSEMKKFLSTLTIDGVTRSDQGLYTCAASSGLMTKKNSTFVRVHEKESKYGPPCPPCPAPPVA | 1.32e-11 M | – | 14.3 RU | ≤ 1.37 pM | ≤ 1e-05 s⁻¹ | 7.3e+06 M⁻¹ s⁻¹ | ≥ 19.2 h | – | – | – | – | – | – | – | – | – | ~1e-11 M
REGN10187, VEGF Trap hIgG4 stealth Fc (Fc fusion) SDTGRPFVEMYSEIPEIIHMTEGRELVIPCRVTSPNITVTLKKFPLDTLIPDGKRIIWDSRKGFIISNATYKEIGLLTCEATVNGHLYKTNYLTHRQTNTIIDVVLSPSHGIELSVGEKLVLNCTARTELNVGIDFNWEYPSSKHQHKKLVNRDLKTQSGSEMKKFLSTLTIDGVTRSDQGLYTCAASSGLMTKKNSTFVRVHEKESKYGPPCPPCPAPPVAGPSVFLFPPKPKDTLMISRTPEVTCVVVDVSQEDPEVQFNWYVDGVEVHNAKTKPREEQFNSTYRVVSVLTVLHQDWLNGKEYKCKVSNKGLPSSIEKTISKAKGQPREPQVYTLPPSQEEMTKNQVSLTCLVKGFYPSDIAVEWESNGQPENNYKTTPPVLDSDGSFFLYSRLTVDKSRWQEGNVFSCSVMHEALHNHYTQKSLSLSLGK | 1.25e-11 M | – | 10.5 RU | 1.82 pM | 1.73e-05 s⁻¹ | 9.5e+06 M⁻¹ s⁻¹ | 11.1 h | – | – | – | – | – | – | – | – | – | ~1e-11 M
REGN11095, VEGF mini-trap hIgG1 Mut GGGL Fc (other, also called Mini-REGN10514; mREGN10514) SDTGRPFVEMYSEIPEIIHMTEGRELVIPCRVTSPNITVTLKKFPLDTLIPDGKRIIWDSRKGFIISNATYKEIGLLTCEATVNGHLYKTNYLTHRQTNTIIDVVLSPSHGIELSVGEKLVLNCTARTELNVGIDFNWEYPSSKHQHKKLVNRDLKTQSGSEMKKFLSTLTIDGVTRSDQGLYTCAASSGLMTKKNSTFVRVHEKDKTHTCPPCPGGGLLG | – | – | – | – | – | – | – | 2.16e-11 M | 2.19e-11 M | – | 19.4 RU | ≤ 0.86 pM | ≤ 1e-05 s⁻¹ | 1.16e+07 M⁻¹ s⁻¹ | ≥ 19.2 h | – | –
REGN11095 (Alexa 488) (other, tagged with Alexa Fluor 488 (AF488) through amine conjugation, also called REGN11095 AF488) SDTGRPFVEMYSEIPEIIHMTEGRELVIPCRVTSPNITVTLKKFPLDTLIPDGKRIIWDSRKGFIISNATYKEIGLLTCEATVNGHLYKTNYLTHRQTNTIIDVVLSPSHGIELSVGEKLVLNCTARTELNVGIDFNWEYPSSKHQHKKLVNRDLKTQSGSEMKKFLSTLTIDGVTRSDQGLYTCAASSGLMTKKNSTFVRVHEKDKTHTCPPCPGGGLLG | – | – | – | – | – | – | – | – | – | – | 14.9 RU | ≤ 0.865 pM | ≤ 1e-05 s⁻¹ | 1.16e+07 M⁻¹ s⁻¹ | ≥ 19.2 h | – | –
REGN10105 (Alexa 488) (other, tagged with Alexa Fluor 488 (AF488) through amine conjugation, also called REGN10105 AF488) SDTGRPFVEMYSEIPEIIHMTEGRELVIPCRVTSPNITVTLKKFPLDTLIPDGKRIIWDSRKGFIISNATYKEIGLLTCEATVNGHLYKTNYLTHRQTNTIIDVVLSPSHGIELSVGEKLVLNCTARTELNVGIDFNWEYPSSKHQHKKLVNRDLKTQSGSEMKKFLSTLTIDGVTRSDQGLYTCAASSGLMTKKNSTFVRVHEKVECPPCPAPPVA | – | – | – | – | – | – | – | – | – | – | 18 RU | ≤ 0.74 pM | ≤ 1e-05 s⁻¹ | 1.36e+07 M⁻¹ s⁻¹ | ≥ 19.2 h | – | –
